Laboratory results reported in patent publication US20110045046A1.
Where no end group is shown, it is not given here. Side-chain parts run from the residue outwards.

Experiments:
HLA-A*0206 (human) = assay: MHC binding assay with purified MHC molecules
HLA-A*0201 (human) [1] = assay: MHC binding assay with purified MHC molecules
HLA-A*0203 (human) [2] = assay: MHC binding assay with purified MHC molecules
HLA-A*0202 (human) = assay: MHC binding assay with purified MHC molecules
[3] = molecular target: T1, H-2K^b class I MHC molecule (mouse); assay: K^b binding capacity
T1 chain 1: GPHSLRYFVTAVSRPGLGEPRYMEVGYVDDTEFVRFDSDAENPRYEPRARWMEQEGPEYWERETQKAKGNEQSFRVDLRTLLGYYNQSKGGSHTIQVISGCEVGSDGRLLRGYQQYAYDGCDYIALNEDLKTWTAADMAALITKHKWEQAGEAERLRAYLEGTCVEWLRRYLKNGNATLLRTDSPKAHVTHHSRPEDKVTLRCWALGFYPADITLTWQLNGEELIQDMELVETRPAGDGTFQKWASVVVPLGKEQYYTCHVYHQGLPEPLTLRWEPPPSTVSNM
T1 chain 2: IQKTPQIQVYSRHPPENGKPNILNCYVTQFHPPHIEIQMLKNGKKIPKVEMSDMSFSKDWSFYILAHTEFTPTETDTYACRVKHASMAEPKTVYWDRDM

HLA-A*0201 (human) [4] = assay: inhibition of binding of a radioiodinated peptide to the MHC molecule (50% inhibition; column headed KD)
HLA-A*0203 (human) [5] = assay: as above

ALASAAAAV (modifications not checked)
IC50 (HLA-A*0206 (human)): 266 nM

TLTSCNTSV (modifications not checked)
IC50 (HLA-A*0201 (human) [1]): 0.29 nM
IC50 (HLA-A*0206 (human)): 15 nM
IC50 (HLA-A*0203 (human) [2]): 13 nM
IC50 (HLA-A*0202 (human)): 8.1 nM

ALASAAAAV (modifications not checked) [ALA(GALNAc-O-S)SAAAAV]
IC50 (HLA-A*0206 (human)): 81 nM

AIIAS([GalNAc-Gal])FAAL [AIIA(β-Gal-[1->3]-α-GalNAc-O-serine)FAAL]
IC50 [3]: 7 nM

LLLLTVLTV (modifications not checked) [LLLL(Tn-T)LTV]
Kd (HLA-A*0201 (human) [4]): 1300 nM
Kd (HLA-A*0203 (human) [5]): 4290 nM

TLTSCNTSV (modifications not checked) [TLT(GalNAc-O-S)CNTSV]
IC50 (HLA-A*0201 (human) [1]): 0.72 nM
IC50 (HLA-A*0206 (human)): 24 nM
IC50 (HLA-A*0203 (human) [2]): 8.2 nM
IC50 (HLA-A*0202 (human)): 15 nM
